Values joined by “and” are separate entries in the source; they are usually repeats but may differ in a detail not shown here. Identical values can stand only once.
How the values were obtained:
[1] = target: mouse fragile X mental retardation protein (FMRP) (mouse) (UniProt P35922); test: Luminex capture immunoassay, 5 ug mouse brain extract
[2] = target: human fragile X mental retardation protein (FMRP) (human) (UniProt Q06787); test: Luminex capture immunoassay, 10 ug human lymphoblastoid control extract
[3] = target: human fragile X mental retardation protein (FMRP) (human) (UniProt Q06787); test: Luminex capture immunoassay, 80 ug human lymphoblastoid control extract
[4] = target: mouse fragile X mental retardation protein (FMRP) (mouse) (UniProt P35922); test: Luminex capture immunoassay, 1.25 ug mouse brain extract
[5] = target: mouse fragile X mental retardation protein (FMRP) (mouse) (UniProt P35922); test: Luminex capture immunoassay, 2.5 ug mouse brain extract
[6] = target: human fragile X mental retardation protein (FMRP) (human) (UniProt Q06787); test: Luminex capture immunoassay, 40 ug human lymphoblastoid control extract
[7] = target: mouse fragile X mental retardation protein (FMRP) (mouse) (UniProt P35922); test: Luminex capture immunoassay, 10 ug mouse brain extract
[8] = target: human fragile X mental retardation protein (FMRP) (human) (UniProt Q06787); test: Luminex capture immunoassay, 5 ug human lymphoblastoid control extract
[9] = target: mouse fragile X mental retardation protein (FMRP) (mouse) (UniProt P35922); test: Luminex capture immunoassay, 40 ug mouse brain extract
[10] = target: human fragile X mental retardation protein (FMRP) (human) (UniProt Q06787); test: Luminex capture immunoassay, 2.5 ug human lymphoblastoid control extract
[11] = target: mouse fragile X mental retardation protein (FMRP) (mouse) (UniProt P35922); test: Luminex capture immunoassay, 20 ug mouse brain extract
[12] = target: human fragile X mental retardation protein (FMRP) (human) (UniProt Q06787); test: Luminex capture immunoassay, 20 ug human lymphoblastoid control extract
[13] = target: human fragile X mental retardation protein (FMRP) (human) (UniProt Q06787); test: Luminex capture immunoassay, 1.25 ug human lymphoblastoid control extract
[14] = target: mouse fragile X mental retardation protein (FMRP) (mouse) (UniProt P35922); test: Luminex capture immunoassay, 80 ug mouse brain extract

For anti-PrP mAb 3F4 (antibody), which phycoerythrin fluorescence (MFI) [1] is on record?
The phycoerythrin fluorescence (MFI) was 7 MFI and 8 MFI.

And the phycoerythrin fluorescence (MFI) [2]?
Its phycoerythrin fluorescence (MFI) is 5 MFI and 4 MFI.

What about the phycoerythrin fluorescence (MFI) [3] of the same substance?
Its phycoerythrin fluorescence (MFI) is 6 MFI.

What about the phycoerythrin fluorescence (MFI) [4] of the same substance?
Its phycoerythrin fluorescence (MFI) is 7 MFI and 5 MFI.

And the phycoerythrin fluorescence (MFI) [5]?
The phycoerythrin fluorescence (MFI) was 7 MFI and 6 MFI.

And the phycoerythrin fluorescence (MFI) [6]?
The phycoerythrin fluorescence (MFI) was 5 MFI and 6 MFI.

What about the phycoerythrin fluorescence (MFI) [7] of the same substance?
Its phycoerythrin fluorescence (MFI) is 11 MFI and 10 MFI.

And the phycoerythrin fluorescence (MFI) [8]?
Its phycoerythrin fluorescence (MFI) is 5 MFI.

What about the phycoerythrin fluorescence (MFI) [9] of the same substance?
Its phycoerythrin fluorescence (MFI) is 36 MFI and 39.5 MFI.

What about the phycoerythrin fluorescence (MFI) [10] of the same substance?
The phycoerythrin fluorescence (MFI) was 6 MFI.

And the phycoerythrin fluorescence (MFI) [11]?
Its phycoerythrin fluorescence (MFI) is 17.5 MFI and 18 MFI.

What about the phycoerythrin fluorescence (MFI) [12] of the same substance?
The phycoerythrin fluorescence (MFI) was 5 MFI and 6 MFI.

What about the phycoerythrin fluorescence (MFI) [13] of the same substance?
The phycoerythrin fluorescence (MFI) was 5 MFI.

What about the phycoerythrin fluorescence (MFI) [14] of the same substance?
Its phycoerythrin fluorescence (MFI) is 51 MFI and 49 MFI.
